According to patent WO2020219978A1:
pEC50: −log10 of the molar value.

Columns and labels:
[1] = target: cynomolgus BCMA (cyno-BCMA), as used in SPR (cynomolgus monkey); experiment: SPR
[2] = target: BCMA on the BCMA+ cell lines (NCI-H929, L363, JJN-3, RPMI-8226, HEK293T-huBCMA, HEK293T-cynoBCMA); experiment: flow cytometry on BCMA+ cell lines

cynomolgus BCMA (cyno-BCMA), as used in SPR (cynomolgus monkey), sequence (chain, as listed by the source): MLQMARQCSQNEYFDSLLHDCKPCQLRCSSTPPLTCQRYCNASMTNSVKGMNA

Substance “CC-93269, bispecific trivalent anti-BCMA/anti-CD3 T cell engaging antibody (TCE) (bispecific antibody)” has a fold higher affinity than to rodent BCMA [1] of 10 fold and a pEC50 [2] of 7.82 to 8.47.
